Data taken from article PMC10901556, “Conservation of Affinity Rather Than Sequence Underlies a Dynamic Evolution of the Motif-Mediated p53/MDM2 Interaction in Ray-Finned Fishes” (Molecular Biology and Evolution, 2024).
Where no end group is shown, it is not given here.

B1: Danio rerio (zebrafish) p53TADP2 p53TAD^15–27 (peptide)
peptide: Ac-SQEFAELWEKNL
notes: numbers count on: human p53TAD; also called p53TAD^15–27_(D.rerio); source: bought: GeneCust (France), peptide
B2: MDM2_(D.rerio) SWIB domain (domain or fragment)
chain: SQISKVDNEKLVRPKVQLKSLLEDAGADKDVFTMKEVMFYLGKYIMSKELYDKQQQHIVHCGEDPLGAVLGVKSFSVKEPRALFALINRNLVT
B3: Takifugu rubripes (Japanese puffer) p53TADP1 p53TAD^full-length (domain or fragment)
chain: MTLNEMTSSSMFLCRSSSDLPAHHRGRMEDEGFSLPLSQDTFQDLWENVAAPSIVTIPTTSLENEQWHQELLMNYPELPFNEELFNLPSEMASKDSANLSTPTVPV

Assays:
Assay in all cases: fluorescence polarisation; displacement: complex of MDM2 (0.2-2 μM) and FITC-p53TAD_(human)^15–26 (15 nM) displaced by increasing unlabeled p53TAD peptide or p53TAD^full-length; KD calculated from IC50 (Nikolovska-Coleska et al. 2004); 20 mM sodium phosphate pH 7.4, 150 mM NaCl, 1 mM TCEP
Conditions in all cases: both partners purified
[1] = target: B2
p53TAD_(H.sapiens)^15–27 = target: T1, p53TAD_(H.sapiens)^15–27 (Homo sapiens (human), N-terminal acetylated)
T1 construct: also called p53TAD_(human)^15–27; Homo sapiens (human) p53TAD^15–27; source: bought: GeneCust (France), peptide

[2] = target: T2, MDM2 SWIB domain from Takifugu rubripes (Japanese puffer) (Takifugu rubripes (Japanese puffer))
T2 construct: MDM2 SWIB domain, Takifugu rubripes; pETM33 vector; Construct limits are in supplementary Spreadsheet S5; also called MDM2 T. rubripes; source: E. coli BL21 (DE3), purified (glutathione agarose, PreScission cleavage, Nickel Sepharose flow-through, SEC); not shown: His6, N-terminal, cleaved; GST, N-terminal, cleaved

B1
Kd [1]: 3600 ± 300 nM

B2
Kd (p53TAD_(H.sapiens)^15–27): 790 ± 50 nM

B3
Kd [2]: 470 ± 30 nM
